The text below walks through data of patent US20190203248A1 (Bristol-Myers Squibb, published 2019).

Assay [1] concerns the target T1, rhesus serum albumin (rhesus, UniProt Q28522 17-600).
T1 construct: also called RhSA
The assay is described as follows: comment in summary table.

The target in assay [2] is T2, murine serum albumin (mouse, UniProt P07724 25-608).
T2 construct: also called MuSA; mouse serum albumin
The assay is described as follows: SPR (Biacore), albumin immobilized on CM5 chip. (In SPR one partner is held on a chip, and binding of the other changes the refractive index at the surface.)
Protocol: In addition, binding to albumin was carried out under various pH conditions ranging from pH 5.5 to pH 7.4.

The target in assay [3] is T3, human serum albumin (human, UniProt P02768 25-609).
T3 construct: also called HSA; HuSA
The assay is described as follows: binding kinetics, HBS-P buffer, 25 C.

Assay [4] concerns the target T1, rhesus serum albumin. The assay is described as follows: binding kinetics, HBS-P buffer, 25 C.
The target of assay [5] is T3, human serum albumin. The assay is described as follows: binding kinetics, HBS-P buffer, 37 C.
Assay [6] has as its target T1, rhesus serum albumin. The assay is described as follows: binding kinetics, HBS-P buffer, 37 C.
The target in assay [7] is T3, human serum albumin. The assay is described as follows: binding kinetics, MES buffer, pH 5.5.
The target in assay [8] is T1, rhesus serum albumin. The assay is described as follows: binding kinetics, MES buffer, pH 5.5.
Assay [9] has as its target T3, human serum albumin. The assay is described as follows: binding kinetics, MES buffer, pH 7.4.
Assay [10] addresses T1, rhesus serum albumin. The assay is described as follows: binding kinetics, MES buffer, pH 7.4.
Assay [11] concerns the target T3, human serum albumin. The assay is described as follows: binding kinetics, HBS-P buffer, 37 C against 25 C.
The target in assay [12] is T1, rhesus serum albumin. The assay is described as follows: binding kinetics, HBS-P buffer, 37 C against 25 C.
For assay [13], the target named is T3, human serum albumin. The assay is described as follows: binding kinetics, HBS-P buffer, 25 C; 25 C, HBS-P buffer.
Assay [14] has as its target rat serum albumin (rat, UniProt P02770 25-608). The assay is described as follows: direct binding ELISA on plate-coated albumin, absorbance 450 nm. The procedure: (§1) For dose response assays, concentrations ranging from 0.1 nM up to 1 μM were used. After washing in PBST to remove unbound Adnectins™, anti-His mAb-HRP conjugate (R&D Systems, MN) diluted 1:2500 in casein block buffer was added to the bound His-tagged Adnectins™ for 1 hour at room temperature. Excess conjugate was removed by washing with PBST and bound Adnectins™ detected using TMB detection reagents (BD Biosciences) according to the manufacturer's instructions.

The target of assay [15] is T3, human serum albumin. The assay is described as above. The procedure:
as §1

In assay [16] the target is T2, murine serum albumin. Described as above. The procedure:
as §1

Assay [17] has as its target T4, human β-klotho (human, UniProt Q86Z14 1-1044). The assay is described as follows: cell-based or functional assay.
Assay [18] concerns the target T4, human β-klotho. The assay is described as follows: cell-based or functional assay. The source holds these as a separate data set.
In assay [19] the target is T5, β-klotho of differentiated 3T3-L1 adipocytes (mouse, UniProt Q99N32 1-1043).
T5 sequence (looked up): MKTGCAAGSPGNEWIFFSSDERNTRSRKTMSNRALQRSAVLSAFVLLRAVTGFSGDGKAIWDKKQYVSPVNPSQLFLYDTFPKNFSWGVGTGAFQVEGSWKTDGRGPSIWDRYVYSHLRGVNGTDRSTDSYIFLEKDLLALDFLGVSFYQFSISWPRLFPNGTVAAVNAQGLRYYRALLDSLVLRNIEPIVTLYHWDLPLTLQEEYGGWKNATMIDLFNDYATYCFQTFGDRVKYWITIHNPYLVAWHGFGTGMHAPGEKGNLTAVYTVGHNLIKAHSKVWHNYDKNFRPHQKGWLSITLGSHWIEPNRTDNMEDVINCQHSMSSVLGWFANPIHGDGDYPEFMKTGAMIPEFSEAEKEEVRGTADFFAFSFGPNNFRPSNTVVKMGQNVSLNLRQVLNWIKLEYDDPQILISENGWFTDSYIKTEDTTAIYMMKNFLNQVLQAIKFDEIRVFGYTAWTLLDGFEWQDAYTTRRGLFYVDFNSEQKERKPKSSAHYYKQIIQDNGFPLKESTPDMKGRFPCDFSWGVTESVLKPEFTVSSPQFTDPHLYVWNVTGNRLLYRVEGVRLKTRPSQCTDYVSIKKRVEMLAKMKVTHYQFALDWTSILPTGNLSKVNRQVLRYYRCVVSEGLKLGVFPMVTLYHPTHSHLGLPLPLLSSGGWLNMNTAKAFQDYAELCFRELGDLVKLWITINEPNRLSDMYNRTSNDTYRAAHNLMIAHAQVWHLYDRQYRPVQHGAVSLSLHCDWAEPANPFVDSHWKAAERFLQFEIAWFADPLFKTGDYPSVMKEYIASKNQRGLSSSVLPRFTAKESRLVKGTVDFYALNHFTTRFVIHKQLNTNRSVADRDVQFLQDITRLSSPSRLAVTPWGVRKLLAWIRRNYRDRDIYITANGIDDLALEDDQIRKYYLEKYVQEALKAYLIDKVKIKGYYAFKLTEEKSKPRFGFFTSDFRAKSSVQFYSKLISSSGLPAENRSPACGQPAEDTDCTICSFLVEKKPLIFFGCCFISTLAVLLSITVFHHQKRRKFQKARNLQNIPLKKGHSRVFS
The assay is described as follows: cell-based or functional assay.

The target of assay [20] is T3, human serum albumin. The assay is described as follows: isothermal titration calorimetry, 37 C, PBS. The procedure: SABA-FGF21 fusion protein plus buffer was placed in the instrument sample cell at a concentration range of 0.4 to 1.0 mg/mL protein. The matching buffer was placed in the reference cell. Concentrations were determined using extinction coefficients calculated from the protein sequences of the pure proteins. The instrument reaction cell was equilibrated at 37° C. […] The resultant thermogram data was fitted using Origin™ evaluation software package (Microcal Inc.) version 2.0.2 to estimate the stochiometry, enthalpy, and equilibrium disassociation constant (KD) of the protein—protein binding reaction.
(In ITC the heat of successive injections is recorded.)

Assay [21] has as its target T3, human serum albumin. The assay is described as follows: SPR (Biacore T100), HSA immobilized, 25 C, 30 µl/min. The procedure:
(§2) Serum albumins were dissolved in PBS buffer (10 mM sodium phosphate, 130 mM sodium chloride, pH 7.1) to a concentration of 10 mg/ml, and subsequently diluted to 8-10 μg/ml in 10 mM sodium acetate pH 5.0 for immobilization. Serum albumins were immobilized on a Series S CM5 sensor chip using standard ethyl(dimethylaminopropyl) carbodiimide (EDC)/N-hydroxysuccinimide (NHS) chemistry in HBS-EP+ running buffer at 25° C., following general manufacturer guidelines. Flow cell 1 was activated with EDC/NHS and blocked with ethanolamine. […] Kinetic experiments were performed in PBS buffer containing 0.05% tween-20 (running buffer) at either 25° C. or 37° C. […] These samples were injected across flow cells 1-4 for 300 s, with a 420 s dissociation time, at flow rates of 30 μl/min or 60 μl/min to check for mass transfer limitation. All surfaces were regenerated with 2 pulses of 10 mM glycine pH 2.0 at 30 μl/min for 30 s. Raw sensograms were “double-referenced” by subtracting flow cell 1 data from flow cell 2, 3 or 4 data, and then subtracting a separate buffer cycle from each sensogram. The double-referenced sensogram data was fitted to a 1:1 Langmuir model using Biacore T100 Evaluation software version 2.0.2 to determine the association rate constant (ka), the dissociation rate constant (kd), and the equilibrium dissociation constant (KD).

The target in assay [22] is T3, human serum albumin. The assay is described as follows: SPR (Biacore T100), HSA immobilized, 37 C, 30 µl/min. The procedure: as §2
The target in assay [23] is T6, cynomolgous monkey serum albumin (cynomolgous monkey, UniProt A2V9Z4 25-608).
T6 construct: also called CySA
T6 sequence (A2V9Z4 25-608 limits assumed): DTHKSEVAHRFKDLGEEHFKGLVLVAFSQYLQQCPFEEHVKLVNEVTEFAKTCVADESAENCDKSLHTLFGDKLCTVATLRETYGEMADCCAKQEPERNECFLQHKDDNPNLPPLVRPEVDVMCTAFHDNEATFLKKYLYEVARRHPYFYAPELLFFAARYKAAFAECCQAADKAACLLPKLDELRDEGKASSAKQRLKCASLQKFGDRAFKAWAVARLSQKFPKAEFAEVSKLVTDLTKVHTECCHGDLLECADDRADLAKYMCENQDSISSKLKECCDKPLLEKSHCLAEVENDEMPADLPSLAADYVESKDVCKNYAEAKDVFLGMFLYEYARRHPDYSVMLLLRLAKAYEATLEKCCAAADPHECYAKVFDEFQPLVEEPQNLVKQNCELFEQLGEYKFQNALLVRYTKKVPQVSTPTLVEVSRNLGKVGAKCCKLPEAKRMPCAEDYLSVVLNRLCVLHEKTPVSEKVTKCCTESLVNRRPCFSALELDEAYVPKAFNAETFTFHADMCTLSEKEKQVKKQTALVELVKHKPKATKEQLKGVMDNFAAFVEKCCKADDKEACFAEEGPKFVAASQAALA
The assay is described as follows: SPR (Biacore T100), CySA immobilized, 25 C, 30 µl/min. The procedure:
as §2

Assay [24] addresses T6, cynomolgous monkey serum albumin. The assay is described as follows: SPR (Biacore T100), CySA immobilized, 37 C, 30 µl/min. The procedure:
as §2

For assay [25], the target named is T2, murine serum albumin. The assay is described as follows: SPR (Biacore T100), immobilized MuSA, analyte series 1000 to 62.5 nM, 37 C. The procedure:
as §2

What is called Kd is the free concentration of one partner at which half of the binding sites on the other are occupied at equilibrium, for simple one-to-one binding. As usually defined, the koff is a measure of how fast the partners let go of each other. For orientation: kon means a measure of how fast the partners come together. Usually EC50 (read off the curve) stands for the concentration at which the effect is half-maximal.

T1 sequence (Q28522 17-600 limits assumed): as the sequence (A2V9Z4 25-608 limits assumed) above
T2 sequence (P07724 25-608 limits assumed): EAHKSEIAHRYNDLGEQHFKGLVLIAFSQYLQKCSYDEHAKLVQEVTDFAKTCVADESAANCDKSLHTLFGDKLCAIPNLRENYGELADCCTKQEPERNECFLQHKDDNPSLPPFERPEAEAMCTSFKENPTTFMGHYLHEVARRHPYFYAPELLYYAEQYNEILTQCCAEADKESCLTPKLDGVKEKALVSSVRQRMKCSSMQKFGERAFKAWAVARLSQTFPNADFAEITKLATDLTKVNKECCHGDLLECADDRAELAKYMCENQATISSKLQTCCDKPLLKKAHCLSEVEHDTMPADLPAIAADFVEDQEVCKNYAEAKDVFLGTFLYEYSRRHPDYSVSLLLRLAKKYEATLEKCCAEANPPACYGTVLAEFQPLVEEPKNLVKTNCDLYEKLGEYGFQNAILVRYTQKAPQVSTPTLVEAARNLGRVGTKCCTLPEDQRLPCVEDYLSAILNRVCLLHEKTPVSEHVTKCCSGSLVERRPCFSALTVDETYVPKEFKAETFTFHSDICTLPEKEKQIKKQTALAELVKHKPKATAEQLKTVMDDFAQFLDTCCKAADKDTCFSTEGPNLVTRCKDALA
Chain of rat serum albumin (P02770 25-608 limits assumed): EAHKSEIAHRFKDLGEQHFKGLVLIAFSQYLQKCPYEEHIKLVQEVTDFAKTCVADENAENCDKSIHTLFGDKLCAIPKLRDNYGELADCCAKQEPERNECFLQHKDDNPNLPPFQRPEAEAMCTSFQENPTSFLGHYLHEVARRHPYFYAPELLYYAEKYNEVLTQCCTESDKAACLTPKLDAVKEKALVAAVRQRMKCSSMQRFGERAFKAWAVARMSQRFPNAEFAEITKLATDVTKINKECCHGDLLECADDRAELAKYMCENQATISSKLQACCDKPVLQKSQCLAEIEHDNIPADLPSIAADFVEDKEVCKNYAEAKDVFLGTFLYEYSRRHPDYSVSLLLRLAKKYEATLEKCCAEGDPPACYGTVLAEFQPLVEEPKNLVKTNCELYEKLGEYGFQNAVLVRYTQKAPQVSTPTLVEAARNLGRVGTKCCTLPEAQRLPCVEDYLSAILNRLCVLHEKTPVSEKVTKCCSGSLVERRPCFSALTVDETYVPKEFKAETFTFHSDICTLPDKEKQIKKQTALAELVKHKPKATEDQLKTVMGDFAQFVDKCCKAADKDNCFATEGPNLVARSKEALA

B1: SABA5.1 (designed binder)
chain: MGVSDVPRDLEVVAATPTSLLISWEDDSYYSRYYRITYGETGGNSPVQEFTVPSDLYTATISGLKPGVDYTITVYAVTYDVTDLIMHEPISINYRTEIDKPSQHHHHHH
notes: His6-tagged Adnectin core 5; same BC, DE and FG loops as SABA4
In the case of B1, the binding result in assay [1] is “binds”; in assay [2], “no binding”.

B2: SABA1.2 (designed binder)
chain: MGVSDVPRDLEVVAATPTSLLISWHSYYEQNSYYRITYGETGGNSPVQEFTVPYSQTTATISGLKPGVDYTITVYAVYGSKYYYPISINYRTEIEDEDEDEDED
notes: also called core 1 10Fn3 comprising an (ED)5 extension
As for B2, the Kd in assay [3] came to 55.3 nM; in assay [4], 580 nM; in [5], 24.1 nM; in [6] it was 977 nM; in [7], 28.6 nM; in assay [8] it was 359 nM. For the same molecule, the values for the Kd in [9] and in [10] were 41.9 nM and 479 nM, respectively. Besides, the koff in assay [3] was determined as 0.000443 s⁻¹; in [4] it was 0.00378 s⁻¹; in [5] it was 0.000815 s⁻¹; in assay [6] it was 0.0185 s⁻¹; in [7], 0.00027 s⁻¹; in assay [8], 0.00272 s⁻¹. Moreover, the koff in assay [9] was 0.000388 s⁻¹; in assay [10] it was 0.00295 s⁻¹. Besides, the kon in assay [4] stood at 6600 M⁻¹ s⁻¹; in [5], 33800 M⁻¹ s⁻¹; in assay [6], 18900 M⁻¹ s⁻¹; in assay [7] it was 9440 M⁻¹ s⁻¹; in assay [8] it was 7570 M⁻¹ s⁻¹; in [9] it was 9260 M⁻¹ s⁻¹. The results for the association rate constant (kon) in assay [10] and in assay [13] were 6160 M⁻¹ s⁻¹ and 8210 M⁻¹ s⁻¹, respectively. Further, the “fold increase in affinity at 37 C against 25 C” value in assay [11] is ~2 fold. In assay [12], the “ratio of affinity at 37 C against 25 C” value stood at 0.5 fold. Further, the binding result in [14] and in assay [16] was “no binding (tested: 1000 nM)” each time. Further, the “EC50 (read off the curve)” value in assay [15] was ~7 nM.

B3: SABA1-FGF21v1 (designed binder)
chain: MGVSDVPRDLEVVAATPTSLLISWHSYYEQNSYYRITYGETGGNSPVQEFTVPYSQTTATISGLKPGVDYTITVYAVYGSKYYYPISINYRTEIEKPSQGSGSGSGSGSGSGSPIPDSSPLLQFGGQVRQRYLYTDDAQQTEAHLEIREDGTVGGAADQSPESLLQLKALKPGVIQILGVKTSRFLCQRPDGALYGSLHFDPEACSFRELLLEDGYNVYQSEAHGLPLHLPGNKSPHRDPAPRGPARFLPLPGLPPALPEPPGILAPQPPDVGSSDPLSMVGPSQGRSPSYAS
notes: Fusion: SABA core 1 with AdNT1 leader and AdCT7 tail, (GS)7 linker, FGF21 core with FNT3 leader and C-terminal S; also called SABA-FGF21v1 fusion; SABA1-FGF21 variant 1
Consider B3, for which the “fold shift of potency (EC50) relative to His-tagged FGF21, pERK 1/2 assay” value in [17] was ~15 fold. Also, the “EC50 (nM), pERK 1/2 assay in HEK β-Klotho expressing stable cells” value in assay [18] was 102 nM. Besides, the “EC50 (nM), pERK assay in 3T3-L1 adipocytes” value in assay [19] amounted to 11 nM. For the same molecule, in assay [19], the “Fold Activation, pERK assay in 3T3-L1 adipocytes” value amounted to 1.8 fold. In addition, the Kd in assay [20] came to 3.8 nM; in assay [21], 98 nM; in assay [22] it was 190 nM; in assay [23] it was 1200 nM; in [24], 2800 nM. In addition, in assay [20], the ΔH was -15.4 kcal/mol. Moreover, the koff in assay [21] was determined as 0.000333 s⁻¹; in [22] it was 0.00111 s⁻¹; in [23] it was 0.0047 s⁻¹; in assay [24], 0.0123 s⁻¹. Further, the association rate constant (kon) came out at 3380 M⁻¹ s⁻¹ in [21], 5960 M⁻¹ s⁻¹ in assay [22], 3930 M⁻¹ s⁻¹ in assay [23] and 4440 M⁻¹ s⁻¹ in assay [24]. The binding result in assay [25] was “no binding (tested: 1000 nM)”.
